Source: patent publication US20110294738A1, “PTHR1 RECEPTOR COMPOUNDS” (priority 2008, published 2011)
* marks the point of attachment. Palmitoyl = CCCCCCCCCCCCCCCC(=O)*

Molecular target: PTHR1 receptor
Sequence (P25961 whole entry): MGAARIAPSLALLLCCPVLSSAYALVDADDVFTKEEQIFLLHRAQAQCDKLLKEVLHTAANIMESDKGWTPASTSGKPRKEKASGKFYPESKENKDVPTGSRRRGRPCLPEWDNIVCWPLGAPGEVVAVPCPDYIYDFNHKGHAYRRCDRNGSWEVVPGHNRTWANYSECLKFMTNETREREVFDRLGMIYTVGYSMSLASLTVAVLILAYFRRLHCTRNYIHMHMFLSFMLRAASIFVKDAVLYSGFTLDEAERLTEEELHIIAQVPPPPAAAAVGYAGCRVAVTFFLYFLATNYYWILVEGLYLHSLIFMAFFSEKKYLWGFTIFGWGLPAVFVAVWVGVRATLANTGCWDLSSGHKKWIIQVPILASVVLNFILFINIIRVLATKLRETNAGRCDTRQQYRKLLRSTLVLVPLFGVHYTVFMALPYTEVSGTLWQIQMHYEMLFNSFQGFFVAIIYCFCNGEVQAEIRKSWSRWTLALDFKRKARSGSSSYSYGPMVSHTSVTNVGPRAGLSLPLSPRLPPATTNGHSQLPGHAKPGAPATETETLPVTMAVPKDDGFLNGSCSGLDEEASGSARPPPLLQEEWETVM

Fold Shift of EC50 [fold]	Inhibition of Maximal Response [%]	Binder
2	21	Palmitoyl-TNAGRSDTRQQYRALL-NH2 (SMILES CCCCCCCCCCCCCCCC(=O)N[C@H](C(=O)N[C@@H](CC(N)=O)C(=O)N[C@@H](C)C(=O)NCC(=O)N[C@@H](CCCNC(=N)N)C(=O)N[C@@H](CO)C(=O)N[C@@H](CC(=O)O)C(=O)N[C@H](C(=O)N[C@@H](CCCNC(=N)N)C(=O)N[C@@H](CCC(N)=O)C(=O)N[C@@H](CCC(N)=O)C(=O)N[C@@H](Cc1ccc(O)cc1)C(=O)N[C@@H](CCCNC(=N)N)C(=O)N[C@@H](C)C(=O)N[C@@H](CC(C)C)C(=O)N[C@@H](CC(C)C)C(N)=O)[C@@H](C)O)[C@@H](C)O) [Compound 90]
2.8	-25	Palmitoyl-TNAGRSDTRQQYRKLA-NH2 (SMILES CCCCCCCCCCCCCCCC(=O)N[C@H](C(=O)N[C@@H](CC(N)=O)C(=O)N[C@@H](C)C(=O)NCC(=O)N[C@@H](CCCNC(=N)N)C(=O)N[C@@H](CO)C(=O)N[C@@H](CC(=O)O)C(=O)N[C@H](C(=O)N[C@@H](CCCNC(=N)N)C(=O)N[C@@H](CCC(N)=O)C(=O)N[C@@H](CCC(N)=O)C(=O)N[C@@H](Cc1ccc(O)cc1)C(=O)N[C@@H](CCCNC(=N)N)C(=O)N[C@@H](CCCCN)C(=O)N[C@@H](CC(C)C)C(=O)N[C@@H](C)C(N)=O)[C@@H](C)O)[C@@H](C)O) [Compound 88]
3.6	5.2	Palmitoyl-TNAGRSDTRQQYRKLLFA-NH2 (SMILES CCCCCCCCCCCCCCCC(=O)N[C@H](C(=O)N[C@@H](CC(N)=O)C(=O)N[C@@H](C)C(=O)NCC(=O)N[C@@H](CCCNC(=N)N)C(=O)N[C@@H](CO)C(=O)N[C@@H](CC(=O)O)C(=O)N[C@H](C(=O)N[C@@H](CCCNC(=N)N)C(=O)N[C@@H](CCC(N)=O)C(=O)N[C@@H](CCC(N)=O)C(=O)N[C@@H](Cc1ccc(O)cc1)C(=O)N[C@@H](CCCNC(=N)N)C(=O)N[C@@H](CCCCN)C(=O)N[C@@H](CC(C)C)C(=O)N[C@@H](CC(C)C)C(=O)N[C@@H](Cc1ccccc1)C(=O)N[C@@H](C)C(N)=O)[C@@H](C)O)[C@@H](C)O) [Compound 86]
2.3	-20.4	Palmitoyl-TNAGRSDTRQQYRKAL-NH2 (SMILES CCCCCCCCCCCCCCCC(=O)N[C@H](C(=O)N[C@@H](CC(N)=O)C(=O)N[C@@H](C)C(=O)NCC(=O)N[C@@H](CCCNC(=N)N)C(=O)N[C@@H](CO)C(=O)N[C@@H](CC(=O)O)C(=O)N[C@H](C(=O)N[C@@H](CCCNC(=N)N)C(=O)N[C@@H](CCC(N)=O)C(=O)N[C@@H](CCC(N)=O)C(=O)N[C@@H](Cc1ccc(O)cc1)C(=O)N[C@@H](CCCNC(=N)N)C(=O)N[C@@H](CCCCN)C(=O)N[C@@H](C)C(=O)N[C@@H](CC(C)C)C(N)=O)[C@@H](C)O)[C@@H](C)O) [Compound 89]
9.1	-25.2	Palmitoyl-TNAGRSDTRQQYRKLLK-NH2 (SMILES CCCCCCCCCCCCCCCC(=O)N[C@H](C(=O)N[C@@H](CC(N)=O)C(=O)N[C@@H](C)C(=O)NCC(=O)N[C@@H](CCCNC(=N)N)C(=O)N[C@@H](CO)C(=O)N[C@@H](CC(=O)O)C(=O)N[C@H](C(=O)N[C@@H](CCCNC(=N)N)C(=O)N[C@@H](CCC(N)=O)C(=O)N[C@@H](CCC(N)=O)C(=O)N[C@@H](Cc1ccc(O)cc1)C(=O)N[C@@H](CCCNC(=N)N)C(=O)N[C@@H](CCCCN)C(=O)N[C@@H](CC(C)C)C(=O)N[C@@H](CC(C)C)C(=O)N[C@@H](CCCCN)C(N)=O)[C@@H](C)O)[C@@H](C)O) [Compound 84]
4.1	8	Palmitoyl-TNAGRSDTRQQYRKLLA-NH2 (SMILES CCCCCCCCCCCCCCCC(=O)N[C@H](C(=O)N[C@@H](CC(N)=O)C(=O)N[C@@H](C)C(=O)NCC(=O)N[C@@H](CCCNC(=N)N)C(=O)N[C@@H](CO)C(=O)N[C@@H](CC(=O)O)C(=O)N[C@H](C(=O)N[C@@H](CCCNC(=N)N)C(=O)N[C@@H](CCC(N)=O)C(=O)N[C@@H](CCC(N)=O)C(=O)N[C@@H](Cc1ccc(O)cc1)C(=O)N[C@@H](CCCNC(=N)N)C(=O)N[C@@H](CCCCN)C(=O)N[C@@H](CC(C)C)C(=O)N[C@@H](CC(C)C)C(=O)N[C@@H](C)C(N)=O)[C@@H](C)O)[C@@H](C)O) [Compound 87]
6.9	19.5	Palmitoyl-TNAGRSDTRQQYRKLLFS-NH2 (SMILES CCCCCCCCCCCCCCCC(=O)N[C@H](C(=O)N[C@@H](CC(N)=O)C(=O)N[C@@H](C)C(=O)NCC(=O)N[C@@H](CCCNC(=N)N)C(=O)N[C@@H](CO)C(=O)N[C@@H](CC(=O)O)C(=O)N[C@H](C(=O)N[C@@H](CCCNC(=N)N)C(=O)N[C@@H](CCC(N)=O)C(=O)N[C@@H](CCC(N)=O)C(=O)N[C@@H](Cc1ccc(O)cc1)C(=O)N[C@@H](CCCNC(=N)N)C(=O)N[C@@H](CCCCN)C(=O)N[C@@H](CC(C)C)C(=O)N[C@@H](CC(C)C)C(=O)N[C@@H](Cc1ccccc1)C(=O)N[C@@H](CO)C(N)=O)[C@@H](C)O)[C@@H](C)O) [Compound 85]

Second part, the binder before the results:

Binder	Fold Shift of EC50 [fold]	Inhibition of Maximal Response [%]
Palmitoyl-TNAGRSATRQQYRKLL-NH2 (SMILES CCCCCCCCCCCCCCCC(=O)N[C@H](C(=O)N[C@@H](CC(N)=O)C(=O)N[C@@H](C)C(=O)NCC(=O)N[C@@H](CCCNC(=N)N)C(=O)N[C@@H](CO)C(=O)N[C@@H](C)C(=O)N[C@H](C(=O)N[C@@H](CCCNC(=N)N)C(=O)N[C@@H](CCC(N)=O)C(=O)N[C@@H](CCC(N)=O)C(=O)N[C@@H](Cc1ccc(O)cc1)C(=O)N[C@@H](CCCNC(=N)N)C(=O)N[C@@H](CCCCN)C(=O)N[C@@H](CC(C)C)C(=O)N[C@@H](CC(C)C)C(N)=O)[C@@H](C)O)[C@@H](C)O) [Compound 82]	23.4	-21.6
Palmitoyl-LYLHSLIFMAFFSEKKYLWGFT-NH2 (SMILES CCCCCCCCCCCCCCCC(=O)N[C@@H](CC(C)C)C(=O)N[C@@H](Cc1ccc(O)cc1)C(=O)N[C@@H](CC(C)C)C(=O)N[C@@H](Cc1c[nH]cn1)C(=O)N[C@@H](CO)C(=O)N[C@@H](CC(C)C)C(=O)N[C@H](C(=O)N[C@@H](Cc1ccccc1)C(=O)N[C@@H](CCSC)C(=O)N[C@@H](C)C(=O)N[C@@H](Cc1ccccc1)C(=O)N[C@@H](Cc1ccccc1)C(=O)N[C@@H](CO)C(=O)N[C@@H](CCC(=O)O)C(=O)N[C@@H](CCCCN)C(=O)N[C@@H](CCCCN)C(=O)N[C@@H](Cc1ccc(O)cc1)C(=O)N[C@@H](CC(C)C)C(=O)N[C@@H](Cc1c[nH]c2ccccc12)C(=O)NCC(=O)N[C@@H](Cc1ccccc1)C(=O)N[C@H](C(N)=O)[C@@H](C)O)[C@@H](C)CC) [Compound 34]	1.2	4.2
Palmitoyl-TNAGRSDTRAQYRKLL-NH2 (SMILES CCCCCCCCCCCCCCCC(=O)N[C@H](C(=O)N[C@@H](CC(N)=O)C(=O)N[C@@H](C)C(=O)NCC(=O)N[C@@H](CCCNC(=N)N)C(=O)N[C@@H](CO)C(=O)N[C@@H](CC(=O)O)C(=O)N[C@H](C(=O)N[C@@H](CCCNC(=N)N)C(=O)N[C@@H](C)C(=O)N[C@@H](CCC(N)=O)C(=O)N[C@@H](Cc1ccc(O)cc1)C(=O)N[C@@H](CCCNC(=N)N)C(=O)N[C@@H](CCCCN)C(=O)N[C@@H](CC(C)C)C(=O)N[C@@H](CC(C)C)C(N)=O)[C@@H](C)O)[C@@H](C)O) [Compound 81]	13.8	-20.8
Palmitoyl-TNAARSDTRQQYRKLL-NH2 (SMILES CCCCCCCCCCCCCCCC(=O)N[C@H](C(=O)N[C@@H](CC(N)=O)C(=O)N[C@@H](C)C(=O)N[C@@H](C)C(=O)N[C@@H](CCCNC(=N)N)C(=O)N[C@@H](CO)C(=O)N[C@@H](CC(=O)O)C(=O)N[C@H](C(=O)N[C@@H](CCCNC(=N)N)C(=O)N[C@@H](CCC(N)=O)C(=O)N[C@@H](CCC(N)=O)C(=O)N[C@@H](Cc1ccc(O)cc1)C(=O)N[C@@H](CCCNC(=N)N)C(=O)N[C@@H](CCCCN)C(=O)N[C@@H](CC(C)C)C(=O)N[C@@H](CC(C)C)C(N)=O)[C@@H](C)O)[C@@H](C)O) [Compound 80]	2.3	0.8
Palmitoyl-TNAGRSDTRQQYRKLLF-NH2 (SMILES CCCCCCCCCCCCCCCC(=O)N[C@H](C(=O)N[C@@H](CC(N)=O)C(=O)N[C@@H](C)C(=O)NCC(=O)N[C@@H](CCCNC(=N)N)C(=O)N[C@@H](CO)C(=O)N[C@@H](CC(=O)O)C(=O)N[C@H](C(=O)N[C@@H](CCCNC(=N)N)C(=O)N[C@@H](CCC(N)=O)C(=O)N[C@@H](CCC(N)=O)C(=O)N[C@@H](Cc1ccc(O)cc1)C(=O)N[C@@H](CCCNC(=N)N)C(=O)N[C@@H](CCCCN)C(=O)N[C@@H](CC(C)C)C(=O)N[C@@H](CC(C)C)C(=O)N[C@@H](Cc1ccccc1)C(N)=O)[C@@H](C)O)[C@@H](C)O) [Compound 83]	7	-5.8
Palmitoyl-TNAGRSDARQQYRKLL-NH2 (SMILES CCCCCCCCCCCCCCCC(=O)N[C@H](C(=O)N[C@@H](CC(N)=O)C(=O)N[C@@H](C)C(=O)NCC(=O)N[C@@H](CCCNC(=N)N)C(=O)N[C@@H](CO)C(=O)N[C@@H](CC(=O)O)C(=O)N[C@@H](C)C(=O)N[C@@H](CCCNC(=N)N)C(=O)N[C@@H](CCC(N)=O)C(=O)N[C@@H](CCC(N)=O)C(=O)N[C@@H](Cc1ccc(O)cc1)C(=O)N[C@@H](CCCNC(=N)N)C(=O)N[C@@H](CCCCN)C(=O)N[C@@H](CC(C)C)C(=O)N[C@@H](CC(C)C)C(N)=O)[C@@H](C)O) [Compound 79]	7.2	1.2
